In test [1] the target is T1, human serum albumin (human, UniProt P02768 25-609).
T1 construct: also called HSA; HAS
Description: phage display panning on HSA and screening.

The target of test [2] is T1, human serum albumin. As to the kind of experiment: screening of the unselected immunized library on HSA.
In test [3] the target is T2, rat serum albumin (rat, UniProt P02770 25-608).
T2 construct: also called RSA
Description: BIAcore, pH 7.4, monomeric 6xHis-tagged VNAR. A general note: SPR reads the build-up and loss of mass on a sensor chip optically.

In test [4] the target is T3, mouse serum albumin (mouse, UniProt P07724 25-608).
T3 construct: also called MSA
T3 sequence (P07724 25-608 limits assumed): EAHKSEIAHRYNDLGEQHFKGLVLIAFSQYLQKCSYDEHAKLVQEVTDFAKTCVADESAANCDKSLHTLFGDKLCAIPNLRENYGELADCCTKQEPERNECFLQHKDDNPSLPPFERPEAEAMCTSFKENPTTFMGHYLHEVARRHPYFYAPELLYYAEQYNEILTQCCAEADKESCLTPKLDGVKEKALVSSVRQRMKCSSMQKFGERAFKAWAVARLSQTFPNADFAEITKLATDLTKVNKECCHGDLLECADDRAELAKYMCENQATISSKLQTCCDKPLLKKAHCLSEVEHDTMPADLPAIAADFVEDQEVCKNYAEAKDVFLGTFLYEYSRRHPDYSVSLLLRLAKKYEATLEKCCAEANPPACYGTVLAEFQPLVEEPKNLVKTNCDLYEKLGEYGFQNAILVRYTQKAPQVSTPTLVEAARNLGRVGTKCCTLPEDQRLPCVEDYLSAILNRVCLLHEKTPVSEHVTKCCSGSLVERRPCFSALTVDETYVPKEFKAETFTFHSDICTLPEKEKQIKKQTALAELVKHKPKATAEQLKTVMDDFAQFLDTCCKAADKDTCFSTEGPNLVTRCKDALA
Description: BIAcore, pH 7.4, monomeric 6xHis-tagged VNAR.

The target of test [5] is T1, human serum albumin. As to the kind of experiment: BIAcore, pH 7.4, monomeric 6xHis-tagged VNAR.
For test [6], the target named is T2, rat serum albumin. As to the kind of experiment: BIAcore, pH 6.0, monomeric 6xHis-tagged VNAR.
Test [7] deals with T3, mouse serum albumin. Description: BIAcore, pH 6.0, monomeric 6xHis-tagged VNAR.
Test [8] concerns the target T1, human serum albumin. As to the kind of experiment: BIAcore, pH 6.0, monomeric 6xHis-tagged VNAR.

These results are taken from US11692025 (UNIVERSITY COURT OF THE UNIVERSITY OF ABERDEEN, dated 2023).

T2 sequence (P02770 25-608 limits assumed): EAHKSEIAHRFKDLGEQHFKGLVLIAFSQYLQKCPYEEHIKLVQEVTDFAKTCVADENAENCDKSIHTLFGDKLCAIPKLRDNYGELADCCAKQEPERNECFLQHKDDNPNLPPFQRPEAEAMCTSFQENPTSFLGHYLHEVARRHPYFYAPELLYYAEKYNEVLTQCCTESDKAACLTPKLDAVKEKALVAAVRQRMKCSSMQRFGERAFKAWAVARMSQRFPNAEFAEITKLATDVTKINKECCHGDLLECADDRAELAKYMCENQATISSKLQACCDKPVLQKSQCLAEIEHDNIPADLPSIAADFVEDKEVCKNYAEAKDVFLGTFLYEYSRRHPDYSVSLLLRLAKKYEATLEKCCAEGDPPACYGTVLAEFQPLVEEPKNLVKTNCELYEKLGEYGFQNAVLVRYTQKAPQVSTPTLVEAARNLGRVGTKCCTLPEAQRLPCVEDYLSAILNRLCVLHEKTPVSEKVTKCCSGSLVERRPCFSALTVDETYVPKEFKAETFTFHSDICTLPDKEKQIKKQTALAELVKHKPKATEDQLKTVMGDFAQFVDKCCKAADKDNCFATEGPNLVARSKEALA

B1: SEQ ID NO 33 (VNAR)
VNAR: ARVDQTPRTATKETGESLTINCVLTDTSYPLYSTYWYRKNPGSSNKEQISISGRYVESVNKGTKSFSLRIKDLTVADSATYICRAMGTDSWTGDGAGTVLTVN
notes: clone name not tied to this number
Consider B1, for which the binding result in the test with human serum albumin [1] is given as “binds”.

B2: SEQ ID NO 55 (VNAR)
VNAR: ARVDQTPRTATKETGESLTINCVLTDTSYPLYSTYWYRKNPGSPNKERISISGRYVESVNKGTKSFSLRIKDLTVADSATYICRAMGANSWTGDGAGTALTVN
notes: clone name not tied to this number; one of the 13 entries may be a consensus
Regarding B2, the binding result with human serum albumin [2] is given as “binds”.

B3: SEQ ID NO 56 (VNAR)
VNAR: ASVNQTPRTATKETGESLTINCVLTDASYPLYSTYWYRKNPGSSNKEQIPISGRYVESVNKGTKSFSLRIKDLTVADSATYICRAMGTNGWTGDGAGTVLTVN
notes: as for B2
With B3, the binding result in the test with human serum albumin [2] is given as “binds”.

B4: SEQ ID NO 53 (VNAR)
VNAR: ARVDQTPRTATKETGESLTINCVLTDTSYPLYSTYWYRKNPGSSNKEQISISGRYVESVNKGTKSFSLRIKDLTVADSATYICRAITTDSWTSDGAGTALTVN
notes: as for B2
As to B4, in the test with human serum albumin [2], the binding result was “binds”.

B5: SEQ ID NO 61 (VNAR)
VNAR: ARVDQTPRTATKETGESLTINCVLTDTSYPLYSTYWYRKNPGSSNKEQISISGRYVESVNKGTKSFSLRIKDLTVADSGTYICRSITTHSWSGDGAGTALTVN
notes: as for B2
With B5, the binding result with human serum albumin [2] is listed as “binds”.

B6: SEQ ID NO 59 (VNAR)
VNAR: ARVDQTPRTATKETGESLTINCVLADTSYPLYSTYWYRKNPGSSNKEQISISGRYVESVNKGTKSFSLRIKDLTVADSATYICRASDIAMGTYDGAGTALTVN
notes: as for B2
For the molecule B6, the binding result with human serum albumin [2] is listed as “binds”.

B7: SEQ ID NO 38 (VNAR)
VNAR: TRVDQTPRTATKETGESLTINCVLTDTSYPLYRTYWYRKNPGSSNKEQISISGRYVESVNKGTKSFSLRIKDLTVADSATYICRAMGTDSWTGDGAGTVLTVN
notes: as for B1
Turning to B7, the binding result with human serum albumin [1] is listed as “binds”.

B8: SEQ ID NO 42 (VNAR)
VNAR: TRVDQTPRTATKETGESLTINCVLTDTSYPLYRTYWYRKNPGSSNKEQISISGRYVESVNKGTKSFSLRIKDLTVADSATYICRAMGTNSWTGDGAGTVLTVN
notes: as for B1
Take B8: the binding result in the test with human serum albumin [1] is listed as “binds”.

B9: SEQ ID NO 43 (VNAR)
VNAR: TRVDQTPRTATKETGESLTINCVLTDTSYPLYSTYWYRKNPGSSNKERISISGRYVESVNKGTKSFSLRIKDLTVADSATYICRAMGTDSWTGDGAGTALTVN
notes: as for B1
For B9, in the test with human serum albumin [1], the binding result is reported as “binds”.

B10: SEQ ID NO 39 (VNAR)
VNAR: TRVDQTPRTATKETGESLTINCVLTDTSYPLYSTYWYRKNPGSSNKERISISGRYVESVNKGTKSFSLRIKDLTVADSATYICRAMGTDSWTGDGAGTVLTVN
notes: as for B1
For B10, the binding result with human serum albumin [1] is listed as “binds”.

B11: SEQ ID NO 40 (VNAR)
VNAR: TRVDQTPRTATKETGESLTINCVLTDTSYPLYSTYWYRKNPGSSNKERISISGRYVESVNKGTKSFSLRIKDLTVADSATYICRAMGTNSWTGDGAGTALTVN
notes: as for B1
As for B11, the binding result with human serum albumin [1] is on record as “binds”.

B12: SEQ ID NO 48 (VNAR)
VNAR: ASVNQTPRTATKETGESLTINCVLTDTSYPLYSTYWYRKNPGSSNKEQISISGRYVESVNKGTKSFSLRIKDLTVADSATYICRAMDTSAGVVDGAGTVLTVN
notes: as for B1
In the case of B12, in the test with human serum albumin [1], the binding result was “binds”.

B13: SEQ ID NO 44 (VNAR)
VNAR: TRVDQTPRTATKETGESLTINCVLTDTSYPLYSTYWYRKNPGSSNKERISISGRYVESVNKGTKSFSLRIKDLTVADSATYICRAMGTNIWTGDGAGTVLTVN
notes: as for B1
Turning to B13, the binding result with human serum albumin [1] is given as “binds”.

B14: SEQ ID NO 62 (other)
chain: IRVDQTPRTATKETGGSLTINCVLTDTSYPLYSTYWYRKNPGSSNKEQISISGRYVESVNKGTKSFSLRIKDLTVADSATYICRALSTYMEAGDGAGTVLTVN
notes: as for B2
Regarding B14, the binding result in the test with human serum albumin [2] is given as “binds”.

B15: SEQ ID NO 49 (VNAR)
VNAR: AKVDQTPRTATKETGESLTINCVLTDTSYPLYSTYWYRKNPGSSNKEQISISGRYVESVNKGTKSFSLRIKDLTVADSATYICRAMGTDSWTGDGAGTVLTVN
notes: as for B1
As for B15, the binding result with human serum albumin [1] is “binds”.

B16: SEQ ID NO 35 (VNAR)
VNAR: TRVDQTPRTATKETGESLTINCVLTDTSYPLYSTYWYRKNPGSSNKEQISISGRYVESVNKGTKSFSLRIKDLTVADSATYICRAMGTNSWTGDGAGTALTVN
notes: as for B1
As for B16, the binding result with human serum albumin [1] is listed as “binds”.

B17: SEQ ID NO 63 (VNAR)
VNAR: ASVNQTPRTATKETGESLTINCVLTDTSYPLYSTYWYRKNPGSSNKEQIPISGRYVESVNKGTKSFSLRIKDLTVADSATYICRAMDTSAGVVDGAGTVLTVN
notes: as for B2
For B17, the binding result with human serum albumin [2] is “binds”.

B18: SEQ ID NO 50 (VNAR)
VNAR: ASVNQTPRTATKETGESLTINCVLTDTSYPLYSTYWYRKNPGSSNKERISISGRYVESVNKGTKSFSLRIKDLTVADSATYICRAMGTDSWTGDGAGTVLTVN
notes: as for B1
For the molecule B18, the binding result with human serum albumin [1] is listed as “binds”.

B19: SEQ ID NO 54 (VNAR)
VNAR: ARVDQTPRTATKETGESLTINCVLTDTSYPLYSTYWYRKNPGSSNKEQISISGRYVESVNKGTKSFSLRIKDLTVADSATYICRAYTIHIKLEQHGAGTVLTVN
notes: as for B2
Regarding B19, the binding result with human serum albumin [2] is “binds”.

B20: SEQ ID NO 58 (VNAR)
VNAR: TRVDQTPRTATKETGESLTINCVLTDTSYPLYSTYWYRKNPGSSNKEQISISGRYVESVNKGTKSFSLRIKDLTVADSATYICRAYTPGREDYGAGTVLTVN
notes: as for B2
In the case of B20, the binding result in the test with human serum albumin [2] is reported as “binds”.

B21: SEQ ID NO 60 (VNAR)
VNAR: ASVNQTPRTATKETGESLTINCVLTGTSCSLYSTSWFRKNPGTTDWERISIGGRYVESVNKGAKSFSLRIKDLTVADSATYYCKAEKGRKGSAITSCRRSSYYDGAGTVLTVN
notes: as for B2
For the molecule B21, the binding result with human serum albumin [2] is recorded as “binds”.

B22: huE06 v1.1 (VNAR)
VNAR: TRVDQSPSSLSASVGDRVTITCVLTDTSYPLYSTYWYQQKPGSSNKEQISISGRYSESVNKGTKSFTLTISSLQPEDFATYYCRAMGTNIWTGDGAGTKVEIK
notes: Humanized VNAR, tested as monomeric 6xHis-tagged protein; also called humanized E06 v1.1; not shown: 6xHis tag
For the molecule B22, the “Fold change from E06” value was determined as 52 fold with rat serum albumin [3]; 59.4 fold in the test with mouse serum albumin [4]; 84.9 fold with human serum albumin [5]; 29 fold with rat serum albumin [6]; 28.3 fold with mouse serum albumin [7]; 35.6 fold with human serum albumin [8]. The Kd in the test with rat serum albumin [3] is 75.3 nM; in the test with mouse serum albumin [4], 49.2 nM; with human serum albumin [5], 16 nM; with rat serum albumin [6], 9.94 nM; with mouse serum albumin [7], 9.28 nM; with human serum albumin [8], 5.07 nM. Besides, the dissociation rate constant (koff) was 0.0329 s⁻¹ with rat serum albumin [3]; 0.0414 s⁻¹ with mouse serum albumin [4]; 0.014 s⁻¹ with human serum albumin [5]; 0.031 s⁻¹ with rat serum albumin [6]; 0.0318 s⁻¹ in the test with mouse serum albumin [7]; 0.0184 s⁻¹ with human serum albumin [8]. Also, the kon is 436000 M⁻¹ s⁻¹ with rat serum albumin [3]; 841000 M⁻¹ s⁻¹ with mouse serum albumin [4]; 872000 M⁻¹ s⁻¹ in the test with human serum albumin [5]; 3.12e+06 M⁻¹ s⁻¹ with rat serum albumin [6]; 3.43e+06 M⁻¹ s⁻¹ in the test with mouse serum albumin [7]; 3.62e+06 M⁻¹ s⁻¹ with human serum albumin [8].

B23: huE06 v1.10 (VNAR)
VNAR: TRVDQSPSSLSASVGDRVTITCVLTDTSYPLYSTYWYRKNPGSSNKEQISISGRYSESVNKGTKSFTLTISSLQPEDFATYYCRAMGTNIWTGDGAGTKVEIK
notes: Humanized VNAR, tested as monomeric 6xHis-tagged protein; also called hE06v1.10; humanized E06 v1.10; not shown: 6xHis tag
With B23, the “Fold change from E06” value was 25.4 fold in the test with rat serum albumin [3]; 28.1 fold in the test with mouse serum albumin [4]; 33.9 fold with human serum albumin [5]; 12.2 fold with rat serum albumin [6]; 12.2 fold with mouse serum albumin [7]; 12.7 fold in the test with human serum albumin [8]. The Kd with rat serum albumin [3] worked out at 36.8 nM; in the test with mouse serum albumin [4] it was 23.2 nM; with human serum albumin [5], 6.4 nM; in the test with rat serum albumin [6], 4.17 nM; in the test with mouse serum albumin [7], 3.98 nM; in the test with human serum albumin [8], 1.81 nM. The koff with rat serum albumin [3] was 0.0165 s⁻¹; with mouse serum albumin [4], 0.00959 s⁻¹; with human serum albumin [5], 0.00357 s⁻¹; with rat serum albumin [6], 0.0152 s⁻¹; with mouse serum albumin [7], 0.0125 s⁻¹; with human serum albumin [8], 0.00637 s⁻¹. Moreover, the on-rate constant (kon) turned out to be 449000 M⁻¹ s⁻¹ with rat serum albumin [3]; 412000 M⁻¹ s⁻¹ with mouse serum albumin [4]; 559000 M⁻¹ s⁻¹ with human serum albumin [5]; 3.65e+06 M⁻¹ s⁻¹ in the test with rat serum albumin [6]; 3.14e+06 M⁻¹ s⁻¹ in the test with mouse serum albumin [7]; 3.52e+06 M⁻¹ s⁻¹ with human serum albumin [8].

B24: SEQ ID NO 57 (VNAR)
VNAR: AKVDQTPRTTTKETGESLTINCVLTETSYGLSSTSWFQKNPGTTDWERMSIGGRYVESVNTGAKSFSLRIKDLTVADSATYYCKAHAGYGVWNRGLQWRGYDQYDGAGTVLTVN
notes: as for B2
Consider B24, for which, in the test with human serum albumin [2], the binding result is “binds”.

B25: SEQ ID NO 52 (VNAR)
VNAR: IRVDQTPRTATKETGESLTINCVLTGTVCGMYSTSWSRKNPGRADWERISIGGRYVESVNKGAKSFSLRIRDLTVADSATYCCSAESPPICTSQGIAAVTKYYDGAGTVLTVN
notes: as for B2
On to B25, for which the binding result with human serum albumin [2] was “binds”.

In general, Kd refers to the equilibrium constant for the complex coming apart. Read a low Kd as tighter binding. Broadly, the koff is the rate constant with which the complex falls apart. In general, kon refers to a measure of how fast the partners come together. Low values mean slower complex formation, high ones faster complex formation.
